One molecule from US12545745B2, “Method for treating a degenerative neurological disorders comprising administering ASM inhibitor” (KYUNGPOOK NATIONAL UNIVERSITY INDUSTRY-ACADEMIC COOPERATION …, priority 2013, dated 2026) can be followed below.

In one series the test system is APP/PS1 mice. Kind of series: Morris water maze (MWM) test in APP/PS1 mice. In kind it is in vivo, mouse. The conditions noted are these: 50 mg/kg i.p. twice weekly, vs PBS, FIG. 55A-55C. The method, then:
More specifically, wild type mice, APP/PS1/ASM^+/− mice, ASM^+/− mice and APP/PS1 mice were used. The mice were given four trials per day for 10 days to learn the task, and on day 11, the mice were given a probe trial in which the platform was removed. The escape latency during the test period and the time spent in the target platform on day 11 were measured. The results are illustrated in FIG. 7 and FIG. 8.
MWM (Morris water maze) experiments were performed in a conventional manner to identify potential effects on learning and memory. Briefly, for the MWM test, mouse were learned the task four times a day for 10 days, followed by the removal of the platform on the 11th day and subsequently a probe trial performed.
MWM (Morris water maze) experiments were performed in a conventional manner to identify potential effects on learning and memory. Briefly, for the MWM test, mice were learned the task four times a day for 10 days, followed by the removal of the platform on the 11th day and subsequently a probe trial performed.

In the next series the test system is astrocytes and microglia. Kind of series: Neuroinflammation in brain of APP/PS1 mice (GFAP, Iba-1 staining, cytokine real-time PCR). In kind it is in vivo, mouse. The conditions noted are these: cerebral medulla and hippocampus, vs PBS. The method, then:
(§1) After fixing the cerebral and hippocampal tissues of the mice, 0.5% thioflavin S (Sigma-Aldrich), anti-20G10 antibodies (mouse, 1:1000) against Aβ42, anti-G30 antibodies (rabbit, […]) against Aβ40, anti-GFAP antibodies (rabbit, 1:500, DAKO), or anti-Iba-1 antibodies (rabbit, 1:500, Wako) were co-cultured. The tissues were analyzed using a laser scanning confocal microscope equipped with Fluoview SV1000 imaging software (Olympus FV1000, Japan) or an Olympus BX51 microscope. Percentage of stained area to total tissue area was quantified and analyzed using Metamorph software (Molecular Devices).
To quantify the expression levels of inflammatory cytokines (TNF-α, […] and IL-6), real-time quantitative PCR was used. […] Also, using Corbett research RG-6000 real-time PCR instrument, real-time quantitative PCR was performed with repeated 40 cycle (one cycle consisting of 95° C., 10 minutes; 95° C., 10 seconds; 58° C., 15 seconds; 72° C., 20 seconds). […]
After fixing the mouse brain and hippocampus, 0.5% thioflavin S (Sigma-Aldrich), anti-GFAP (rabbit, 1:500, DAKO), and anti-Iba-1 (rabbit, 1:500, WAKO) were co-cultured together. The regions were analyzed using a laser scanning confocal microscope equipped with Fluoview SV1000 imaging software (Olympus FV1000, Japan) or an Olympus BX51 microscope. […]
Background: Quantitative PCR measures a nucleic acid by following its amplification.

The next series concerns β-amyloid. Briefly: β-amyloid deposition in brain tissue of APP/PS1 mice (thioflavin S, immunofluorescence, ELISA). Conditions: medulla and hippocampus, 50 mg/kg i.p. twice weekly, vs PBS. In kind it is in vivo, mouse. The method, then: First, the cerebral cortex and hippocampus tissue of each mouse prepared in Example 1-1 were isolated, and then a tissue fragment was obtained and this was dyed with thioflavin S according to a conventional known method. The results are illustrated in FIG. 3 (cerebral cortex) and FIG. 4 (hippocampus).
Also, immunofluorescence was performed according to a conventional known method using anti-20G10 (mouse, 1:1000) antibody against Aβ42, anti-G30 (rabbit, […]) antibody against Aβ40, anti-Iba-1 (rabbit, 1:500, Wako) antibody, anti-GFAP (rabbit, 1:500, DAKO) antibody and anti-active caspase3 (rabbit, 1:50, Chemicon) antibody. Tissue fragments were observed using a confocal laser scanning microscope equipped with Fluoview SV1000 imaging software (Olympus FV1000, Japan) or an Olympus BX51 microscope, and the percentage of the area of the dyed area with respect to the area of the entire tissue was quantified using Metamorph software (Molecular Devices).
Also, β-amyloid deposition was confirmed using commercially available ELISA kits (Biosource). More specifically, hemispheres of the brain of each mouse were homogenized in a buffer containing 0.02 M of guanidine. Thereafter, ELISA was performed for Aβ40 and Aβ42 according to the manufacturer's instructions.
as §1
After fixing the mouse brain and hippocampus, 0.5% thioflavin S (Sigma-Aldrich), anti-GFAP (rabbit, 1:500, DAKO), and anti-Iba-1 (rabbit, 1:500, WAKO) were co-cultured together. The regions were analyzed using a laser scanning confocal microscope equipped with Fluoview SV1000 imaging software (Olympus FV1000, Japan) or an Olympus BX51 microscope. Percentage of stained area to total tissue area was quantified and analyzed using Metamorph software (Molecular Devices).
Proteins were extracted from mouse brain and hippocampus, and the amounts of Abeta40 (KHB3481, Invitrogen) and Abeta42 (KHB3441, Invitrogen) were measured using ELISA.

The target of a further series is T1, ASM (Mus musculus, UniProt Q04519).
T1 construct: from tissue; host or cells: mouse serum/plasma and brain tissue (APP/PS1, RSD-stressed C57BL/6, FUS R521C mice)
T1 sequence (Q04519 45-627): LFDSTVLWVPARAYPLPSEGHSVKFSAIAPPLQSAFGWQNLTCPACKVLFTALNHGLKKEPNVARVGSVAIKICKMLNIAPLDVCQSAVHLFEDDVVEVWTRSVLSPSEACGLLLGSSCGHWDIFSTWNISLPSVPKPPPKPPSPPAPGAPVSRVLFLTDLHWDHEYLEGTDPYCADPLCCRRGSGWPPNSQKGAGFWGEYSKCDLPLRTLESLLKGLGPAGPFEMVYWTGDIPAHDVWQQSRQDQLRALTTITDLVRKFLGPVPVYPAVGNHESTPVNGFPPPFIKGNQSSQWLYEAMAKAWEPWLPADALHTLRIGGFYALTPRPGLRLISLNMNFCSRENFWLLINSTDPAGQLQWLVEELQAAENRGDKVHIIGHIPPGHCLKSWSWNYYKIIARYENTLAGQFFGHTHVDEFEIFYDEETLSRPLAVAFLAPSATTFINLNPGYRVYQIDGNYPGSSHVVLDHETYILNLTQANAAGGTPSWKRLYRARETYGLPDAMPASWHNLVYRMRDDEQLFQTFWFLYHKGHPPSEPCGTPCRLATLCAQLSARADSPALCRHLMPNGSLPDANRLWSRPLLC
Briefly: ASM activity / concentration level in serum (plasma) and brain tissue of APP/PS1 mice (UPLC). Type of series: in vivo. Conditions: 7-month-old APP/PS1 mice, 50 mg/kg i.p. twice weekly, vs PBS; FIG. 51B.

The subject of another series is ASM protein. Kind of series: ASM protein concentration in plasma of APP/PS1 mice (ELISA). Type of series: in vivo, mouse. The conditions noted are these: 50 mg/kg i.p. twice weekly, between groups, FIG. 51C.

B1: ASM-ab 23A12C3: self-made monoclonal ASM antibody, Koma biotech; heavy chain SEQ ID NO. 29, light chain SEQ ID NO. 30 (antibody)
heavy: MGWSWIFLFLLSGTAGVHSEVQLQQSGPVLVKPGASVKMSCKASGYTFTDYYMNWVKQSHGKSLEWIGVINPYNDGTSYNQKFKGKATLTVDKSSSTAYMELNSLTSEDSAVYYCAREKLYYYGRDYAMDYWGQGTSVTVSSAKTTPPSVYPLAPGSAAQTNSMVTLGCLVKGYFPEPVTVTWNSGSLSSGVHTFPAVLQSDLYTLSSSVTVPSSTWPSQTVTCNVAHPASSTKVDKKIVPRDCGCKPCICTVPEVSSVFIFPPKPKDVLTITLTPKVTCVVVDISKDDPEVQFSWFVDDVEVHTAQTKPREEQINSTFRSVSELPIMHQDWLNGKEFKCRVNSAAFPAPIEKTISKTKGRPKAPQVYTIPPPKEQMAKDKVSLTCMITNFFPEDITVEWQWNGQPAENYKNTQPIMDTDGSYFVYSKLNVQKSNWEAGNTFTCSVLHEGLHNHHTEKSLSHSPGK
light: MSSAQFLGLLLLCFQGTRCDIQMTQTTSSLSASLGDRVTISCRSSQDISNYLNWCQQKPDGTVKLLIYYTSRLHSGVPSRFSGSGSGTDYSLTISNLEQEDIATYFCQQDNTLPYTFGGGTKLEIKRADAAPTVSIFPPSSEQLTSGGASVVCFLNNFYPKDINVKWKIDGSERQNGVLNSWTDQDSKDSTYSMSSTLTLTKDEYERHNSYTCEATHKTSTSPIVKSFNRNEC
modifications: 23A12C3_Heavy chain; 23A12C3_Light chain
notes: self-made monoclonal ASM antibody, Koma biotech; 30
Take B1: the “impairments in spatial memory, cognition and memory formation (MWM)” value in the series with APP/PS1 mice was “improved”. The “activity of microglia (Iba-1)” value in the series on astrocytes and microglia (FIG. 54A) is given as “significantly reduced”. The “activity of astrocytes (GFAP)” value in the series with astrocytes and microglia (FIG. 54B) was “significantly reduced”. Besides, the “deposition of fibrillar Aβ (thioflavin S)” value in the series with β-amyloid (FIG. 52A, 52B) is listed as “significantly lower”. In the series with β-amyloid (FIG. 53A, 53B), the “deposition of Aβ40 (ELISA)” value is reported as “significantly lower” and the “deposition of Aβ42 (ELISA)” value is listed as “significantly lower”. Further, the “level of ASM concentration (ASM activity) in the plasma” value with ASM is reported as “remarkably low”. Moreover, the “plasma ASM protein concentration” value in the series with ASM protein is “no difference”.
